Laboratory results published in CN110577600A (SHANGHAI INST MATERIA MEDICA CAS; NANJING LEADS BIOLABS …, dated 2019).

Molecular target: T1, 重组人GPC3蛋白 (human, UniProt P51654 25-559, limits assumed)
T1 construct: also called 磷脂酰肌醇聚糖蛋白3
Test: SPR, Biacore X100; antibody captured on goat anti-human Fc gamma CM5 chip, human GPC3 10nM-80nM as analyte, 1:1 Langmuir model

T1 sequence (P51654 25-559 limits assumed): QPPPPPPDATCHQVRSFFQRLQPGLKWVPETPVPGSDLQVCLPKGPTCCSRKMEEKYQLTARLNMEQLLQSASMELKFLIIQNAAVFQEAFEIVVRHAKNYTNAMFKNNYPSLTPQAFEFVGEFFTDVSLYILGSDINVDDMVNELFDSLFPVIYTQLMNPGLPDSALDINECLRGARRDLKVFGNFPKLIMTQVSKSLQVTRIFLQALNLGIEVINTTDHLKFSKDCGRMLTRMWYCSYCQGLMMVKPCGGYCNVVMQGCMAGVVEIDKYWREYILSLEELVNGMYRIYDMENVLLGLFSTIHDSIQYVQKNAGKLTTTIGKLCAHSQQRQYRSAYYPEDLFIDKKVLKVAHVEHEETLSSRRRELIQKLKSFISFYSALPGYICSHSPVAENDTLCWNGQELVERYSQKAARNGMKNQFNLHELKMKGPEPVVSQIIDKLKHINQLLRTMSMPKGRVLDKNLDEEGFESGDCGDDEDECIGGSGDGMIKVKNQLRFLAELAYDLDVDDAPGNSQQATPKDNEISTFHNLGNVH

B1: 抗体GPC3-6 (antibody, human IgG1, lambda, V domains shown)
VH: QVHLVQSGAEVQKPGSSVKVSCKASGGTFSSYGINWVRQAPGQGLEWMGWISAYNGNTNYAQKLQGRVTMTTDTSTSTAYMELRSLRSDDTAVYYCARGSGLLPRIGGYWGKGTMVTVSS
VL: LSSELTQDPAVSVPLGQTVRITCRGDSLRTFYATWYQQKPGQAPVRVIYRKNNRPSGIPDRFSGSSSGNTASLTITGAQAEDEADYYCNSRDSSGDHLVFGTGTKLTVLG
notes: Selected from a phage display antibody library against GPC3; In SPR it was captured through goat anti-human Fc gamma; also called 人抗GPC3抗体GPC3-6; 抗GPC3抗体
Q: B1 was tested. Which Kd did it give?
A: 3.77 nM

Q: And the koff?
A: 0.000719 s⁻¹

Q: And the kon?
A: 190000 M⁻¹ s⁻¹
